In US20200199241A1 (Chugai, published 2020):
Positions count from the first letter of the chain named. Names may count otherwise.

B1: IL6R-PD082/IL6R-L (antibody, human IgG1)
heavy: QVQLQESGPGLVKPSETLSLTCAVSGHSISHDHAWSWVRQPPGEGLEWIGFISYSGITNYNPSLQGRVTISRDNSKNTLYLQMNSLRAEDTAVYYCARSLARTTAMDYWGEGTLVTVSSASTKGPSVFPLAPSSKSTSGGTAALGCLVKDYFPEPVTVSWNSGALTSGVHTFPAVLQSSGLYSLSSVVTVPSSSLGTQTYICNVNHKPSNTKVDKKVEPKSCDKTHTCPPCPAPELLGFDSVFLFPPKPKDTLYISRTPEVTCVVVDVSHEDPEVKFNWYVDGVEVHNAKTKPREEQYNSTYRVVSVLTVLHQDWLNGKEYKCKVSNKALPAPIEKTISKAKGQPREPQVYTLPPSRDELTKNQVSLTCLVKGFYPSDIAVEWESNGQPENNYKTTPPVLDSDGSFFLYSKLTVDKSRWQQGNVFSCSVMHEALHYHYTQKSLSLSP
light: DIQMTQSPSSLSASVGDRVTITCRASQDISSYLNWYQQKPGKAPKLLIYYTSRLHSGVPSRFSGSGSGTDFTFTISSLQPEDIATYYCQQGNTLPYTFGQGTKVEIK
notes: Alteration introduced into IL6R-F11; also called P238D/G237F; G237F/P238D
B2: IL6R-PD087/IL6R-L (antibody, human IgG1)
heavy: B1 heavy with F239M
light: B1 light
notes: Alteration introduced into IL6R-F11; also called P238D/G237M; G237M/P238D
B3: IL6R-PD095/IL6R-L (antibody, human IgG1)
heavy: B1 heavy with F239Y
light: B1 light
notes: Alteration introduced into IL6R-F11; also called P238D/G237Y; G237Y/P238D
B4: IL6R-PD086/IL6R-L (antibody, human IgG1)
heavy: B1 heavy with F239L
light: B1 light
notes: Alteration introduced into IL6R-F11; also called P238D/G237L; G237L/P238D
B5: IL6R-PD097/IL6R-L (antibody, human IgG1)
heavy: B1 heavy with F239G, S241D
light: B1 light
notes: Alteration introduced into IL6R-F11; also called P238D/S239D
B6: IL6R-PD094/IL6R-L (antibody, human IgG1)
heavy: B1 heavy with F239W
light: B1 light
notes: Alteration introduced into IL6R-F11; also called P238D/G237W; G237W/P238D
B7: IL6R-BP118/IL6R-L (antibody, human IgG1)
heavy: B1 heavy with F239G, Y254M, K328S, Y436N, K441E
light: B1 light
notes: IgG1; Fc variant of IL6R-B3; copies: 2 + 2
B8: IL6R-BP100/IL6R-L (antibody, human IgG1)
heavy: B1 heavy with F239G, Y254M, S269A, Y436N, K441E
light: B1 light
notes: as for B7
B9: IL6R-BP103/IL6R-L (antibody, human IgG1)
heavy: B1 heavy with F239G, Y254M, S269V, Y436N, K441E
light: B1 light
notes: as for B7
B10: IL6R-BP119/IL6R-L (antibody, human IgG1)
heavy: B1 heavy with F239G, Y254M, K328M, Y436N, K441E
light: B1 light
notes: as for B7
B11: IL6R-BP102/IL6R-L (antibody, human IgG1)
heavy: B1 heavy with F239G, Y254M, S269Q, Y436N, K441E
light: B1 light
notes: as for B7
B12: IL6R-BP116/IL6R-L (antibody, human IgG1)
heavy: B1 heavy with F239G, Y254M, K328T, Y436N, K441E
light: B1 light
notes: as for B7
B13: IL6R-2B171/IL6R-L (antibody, human IgG1)
heavy: B1 heavy with F239G, Y254M, V325L, Y436N, K441E
light: B1 light
notes: as for B7
B14: IL6R-2B172/IL6R-L (antibody, human IgG1)
heavy: B1 heavy with F239G, Y254M, V325M, Y436N, K441E
light: B1 light
notes: as for B7

target: T1, human FcγRIIb (human, UniProt P31994 43-217, limits assumed); test: SPR (Biacore); ratio against parent IL6R-F11/IL6R-L
T1 construct: also called FcγIIB
T1 sequence: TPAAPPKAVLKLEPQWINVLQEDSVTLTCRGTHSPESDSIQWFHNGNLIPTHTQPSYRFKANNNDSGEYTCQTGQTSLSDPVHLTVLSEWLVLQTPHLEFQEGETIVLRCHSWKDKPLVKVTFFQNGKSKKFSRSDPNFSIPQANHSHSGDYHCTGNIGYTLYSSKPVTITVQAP

Row | Binder | KD(IIb) of parent polypeptide/KD(IIb) of altered polypeptide
1 | B1 | 2
2 | B2 | 2.4
3 | B3 | 2.9
4 | B4 | 2.7
5 | B5 | 5
6 | B6 | 2.9

target: T2, human FcγRIa (human, UniProt P12314 16-292, limits assumed); test: SPR (Biacore), antibody captured, FcγR as analyte
T2 construct: also called CD64
T2 sequence (P12314 16-292 limits assumed): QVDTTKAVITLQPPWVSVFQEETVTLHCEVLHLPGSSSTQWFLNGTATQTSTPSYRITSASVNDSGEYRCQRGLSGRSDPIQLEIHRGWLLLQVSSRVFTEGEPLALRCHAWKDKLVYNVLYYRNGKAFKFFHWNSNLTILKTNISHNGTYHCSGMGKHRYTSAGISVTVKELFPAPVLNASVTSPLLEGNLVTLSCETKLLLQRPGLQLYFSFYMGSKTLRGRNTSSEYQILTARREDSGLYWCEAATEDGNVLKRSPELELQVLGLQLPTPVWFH

Row | Binder | Kd [µM]
7 | B1 | 0.052
8 | B2 | 0.052
9 | B3 | 0.093
10 | B4 | 0.12
11 | B5 | 0.0049
12 | B6 | 0.036

target: T1, human FcγRIIb; test: SPR (Biacore), antibody captured, FcγR as analyte

Row | Binder | Kd [µM]
13 | B1 | 3.4
14 | B2 | 2.9
15 | B3 | 2.3
16 | B4 | 2.6
17 | B5 | 1.4
18 | B6 | 2.3

Target: T3, human FcγRIIa type R (human, UniProt P12318 36-217)
T3 construct: also called FcγRIIaR; FcγRIIa(R)
T3 chain: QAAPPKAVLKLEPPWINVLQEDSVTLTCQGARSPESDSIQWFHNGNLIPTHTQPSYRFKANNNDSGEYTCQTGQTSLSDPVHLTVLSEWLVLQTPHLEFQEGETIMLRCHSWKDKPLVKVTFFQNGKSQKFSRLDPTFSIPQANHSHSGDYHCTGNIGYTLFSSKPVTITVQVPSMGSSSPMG
Test: SPR (Biacore), antibody captured, FcγR as analyte

Row | Binder | Kd [µM]
19 | B1 | 14
20 | B2 | 22
21 | B3 | 7.9
22 | B4 | 18
23 | B5 | 3.5
24 | B6 | 7.2

target: T4, FcγRIIb (human, UniProt P31994 43-217, limits assumed); test: SPR (Biacore), KD of IL6R-B3/IL6R-L divided by KD of the variant
T4 construct: also called FcgRIIb; FcγIIB
T4 sequence: T1 sequence
Excerpt: Furthermore, KD(IIaR)/KD(IIb) and KD(IIaH)/KD(IIb) in the table respectively represent the value obtained by dividing the KD value of each variant for FcγRIIaR by the KD value of each variant for FcγRIIb, and the value obtained by dividing the KD value of each variant for FcγRIIaH by the KD value of each variant for FcγRIIb. KD(IIb) of the parent polypeptide/KD(IIb) of the altered polypeptide refers to the value obtained by dividing the KD value of the parent polypeptide for FcγRIIb by the KD value of each variant for FcγRIIb.

Row | Binder | KD(IIb) of the parent polypeptide/KD(IIb) of altered polypeptide [fold]
25 | B7 | 2.7
26 | B8 | 2.9
27 | B9 | 2.5
28 | B10 | 2.7
29 | B11 | 3.4
30 | B12 | 2.8
31 | B13 | 2.9
32 | B14 | 4

target: T1, human FcγRIIb; test: SPR (Biacore), binding amount relative to IL6R-F652/IL6R-L = 100

Row | Binder | relative binding activity
33 | B1 | 108
34 | B2 | 109
35 | B3 | 124
36 | B4 | 112
37 | B5 | 139
38 | B6 | 122

Target: T3, human FcγRIIa type R
Test: as above

Row | Binder | relative binding activity
39 | B1 | 380
40 | B2 | 196
41 | B3 | 543
42 | B4 | 268
43 | B5 | 844
44 | B6 | 593

target: T1, human FcγRIIb; test: SPR (Biacore); KD for FcγRIIaH divided by KD for FcγRIIb of the same antibody

Row | Binder | KD(IIaH)/KD(IIb)
45 | B1 | 4.7
46 | B2 | 7
47 | B3 | 6.4
48 | B4 | 7.1
49 | B5 | 14
50 | B6 | 5.2

target: T4, FcγRIIb; test: as above
Excerpt: Furthermore, KD(IIaR)/KD(IIb) and KD(IIaH)/KD(IIb) in the table respectively represent the value obtained by dividing the KD value of each variant for FcγRIIaR by the KD value of each variant for FcγRIIb, and the value obtained by dividing the KD value of each variant for FcγRIIaH by the KD value of each variant for FcγRIIb.

Row | Binder | KD(IIaH)/KD(IIb)
51 | B7 | 40
52 | B8 | 42.6
53 | B9 | 71.5
54 | B10 | 39.5
55 | B11 | 67.6
56 | B12 | 48.2
57 | B13 | 31.8
58 | B14 | 27.3

target: T4, FcγRIIb; test: SPR (Biacore); KD for FcγRIIaR divided by KD for FcγRIIb of the same antibody

Row | Binder | KD(IIaR)/KD(IIb)
59 | B7 | 13.2
60 | B8 | 7.3
61 | B9 | 9
62 | B10 | 8.7
63 | B11 | 9.4
64 | B12 | 13.3
65 | B13 | 15
66 | B14 | 8

target: T5, FcγRIIIa type V (human, UniProt P08637 17-208, limits assumed); test: SPR (Biacore), FcγR over captured antibody
T5 construct: also called FcγRIIIaV; FcgRIIIaV
T5 sequence (P08637 other isoform, or with tags, fused parts or gaps limits assumed): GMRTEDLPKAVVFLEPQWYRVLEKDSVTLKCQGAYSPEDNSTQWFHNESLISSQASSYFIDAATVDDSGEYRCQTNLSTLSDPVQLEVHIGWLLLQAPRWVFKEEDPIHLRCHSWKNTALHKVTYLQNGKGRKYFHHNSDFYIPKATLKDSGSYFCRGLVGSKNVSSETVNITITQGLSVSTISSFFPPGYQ

Row | Binder | Kd [µM]
67 | B7 | 56
68 | B8 | 59
69 | B9 | 110
70 | B10 | 56
71 | B11 | 82
72 | B12 | 72
73 | B13 | 57
74 | B14 | 48

target: T4, FcγRIIb; test: SPR (Biacore), FcγR over captured antibody

Row | Binder | Kd [µM]
75 | B7 | 1.2
76 | B8 | 1.1
77 | B9 | 1.2
78 | B10 | 1.1
79 | B11 | 0.9
80 | B12 | 1.1
81 | B13 | 1.1
82 | B14 | 0.77

target: T6, FcγRIIa type H (human, UniProt P12318 36-217); test: SPR (Biacore), FcγR over captured antibody
T6 construct: also called FcγRIIaH; FcγRIIH
T6 sequence: T3 chain with R133H

Row | Binder | Kd [µM]
83 | B7 | 46
84 | B8 | 46
85 | B9 | 88
86 | B10 | 45
87 | B11 | 61
88 | B12 | 54
89 | B13 | 34
90 | B14 | 21

Target: T7, FcγRIIa type R (human, UniProt P12318 36-217)
T7 construct: also called FcγRIIaR; FcgRIIaR
T7 chain: T3 chain
Test: SPR (Biacore), FcγR over captured antibody

Row | Binder | Kd [µM]
91 | B7 | 15
92 | B8 | 7.8
93 | B9 | 11
94 | B10 | 9.9
95 | B11 | 8.4
96 | B12 | 15
97 | B13 | 16
98 | B14 | 6.1

target: T8, FcγRIa (human, UniProt P12314 16-292, limits assumed); test: SPR (Biacore), FcγR over captured antibody
T8 construct: also called FcgRIa; CD64
T8 sequence (P12314 16-292 limits assumed): as the sequence (P12314 16-292 limits assumed) above

Row | Binder | Kd [µM]
99 | B7 | 0.012
100 | B8 | 0.0011
101 | B9 | 0.035
102 | B10 | 0.007
103 | B11 | 0.0082
104 | B12 | 0.0026
105 | B13 | 0.0091
106 | B14 | 0.003

target: T1, human FcγRIIb; test: SPR (Biacore); KD for FcγRIIaR divided by KD for FcγRIIb of the same antibody

Row | Binder | KD(IIaR)/KD(IIb)
107 | B1 | 4.1
108 | B2 | 7.7
109 | B3 | 3.4
110 | B4 | 6.9
111 | B5 | 2.6
112 | B6 | 3.1
